Results taken from article PMC9225179, “RNA Polymerase II Transcription in Pneumocystis: TFIIB from Pneumocystis carinii Can Replace the Transcriptional Functions of Fission Yeast Schizosaccharomyces pombe TFIIB In Vivo and In Vitro” (International Journal of Molecular Sciences, 2022).

Biological target: T1, Schizosaccharomyces pombe TFIIB (S. pombe, UniProt O13749 1-340)
T1 construct: General transcription factor TFIIB of S. pombe (sua7), 340 aa as printed; also called SpIIB; fission yeast TFIIB
T1 sequence (looked up): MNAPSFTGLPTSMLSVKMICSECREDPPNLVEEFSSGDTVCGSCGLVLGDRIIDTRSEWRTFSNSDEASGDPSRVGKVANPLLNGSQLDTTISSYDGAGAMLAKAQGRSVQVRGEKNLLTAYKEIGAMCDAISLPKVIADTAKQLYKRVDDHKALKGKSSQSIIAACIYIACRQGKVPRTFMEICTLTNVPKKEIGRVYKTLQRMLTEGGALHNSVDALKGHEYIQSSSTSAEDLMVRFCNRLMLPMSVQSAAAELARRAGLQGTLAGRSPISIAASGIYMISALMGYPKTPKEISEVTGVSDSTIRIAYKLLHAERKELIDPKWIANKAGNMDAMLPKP
Test: native gel or EMSA; TBP and TFIIB (20 ng each) on 32P-labelled Ad-MLP TATA box probe; 20 mM HEPES pH 7.9, 50 mM KCl, 5 mM MgCl2, 5% glycerol; 15 min at 30 °C; 5% polyacrylamide gel at 4 °C
Conditions: both partners purified

B1: Schizosaccharomyces pombe TATA-binding protein (natural protein, S. pombe, UniProt P17871 1-231, looked up)
chain: MDFALPTTASQASAFMNNSSLTFPVLPNANNEATNETADSGDAEVSKNEGVSGIVPTLQNIVATVNLDCRLDLKTIALHARNAEYNPKRFAAVIMRIREPKSTALIFASGKMVVLGGKSEDDSKLASRKYARIIQKLGFNAKFTDFKIQNIVGSCDVKFPIRLEGLAYSHGTFSSYEPELFPGLIYRMVKPKVVLLIFVSGKIVLTGAKVREEIYQAFEAIYPVLSEFRKH
notes: also called TBP; fission yeast TBP
binding result: binds
